Results reported in publication PMC5394233, “Structural and functional analysis of the human POT1-TPP1 telomeric complex” (Nature Communications, 2017).

What was measured:
[1] = target: POT1C;TPP1(PBD) (Homo sapiens;Homo sapiens, UniProt Q9NUX5;Q96AP0 330-634;169-251, |); experiment: fluorescence polarization; up to 5 uM protein; FP: 20 mM Hepes pH 7.5, 100 mM KCl, 2 mM MgCl2, 1 mM EDTA, 2 mM DTT, 1 mg/ml BSA, 5% glycerol, 75 nM polyT50 competitor, 2.5 nM probe, room temperature 30 min; settings: protein: recombinant;recombinant; tags: N-terminal His6-pMocr, TEV-cleaved;N-terminal His6, TEV-cleaved; copies: 1;1; label: 5' 6-FAM; single strand
[2] = target: flPOT1 C591W;TPP1(87) (Homo sapiens;Homo sapiens, UniProt Q9NUX5;Q96AP0 1-634;1-458, C591W|); experiment: fluorescence polarization; FP: 20 mM Hepes pH 7.5, 100 mM KCl, 2 mM MgCl2, 1 mM EDTA, 2 mM DTT, 1 mg/ml BSA, 5% glycerol, 75 nM polyT50 competitor, 2.5 nM probe, room temperature 30 min; settings: protein: recombinant;recombinant, tags: N-terminal His6-pMocr, TEV-cleaved;N-terminal His6-MBP, copies: 1;1, label: 5' 6-FAM, single strand
[3] = target: T1, flPOT1 WT (Homo sapiens, UniProt Q9NUX5 1-634); experiment: as above; settings: protein: recombinant; tags: N-terminal His6-pMocr, TEV-cleaved; label: 5' 6-FAM; single strand
T1 sequence: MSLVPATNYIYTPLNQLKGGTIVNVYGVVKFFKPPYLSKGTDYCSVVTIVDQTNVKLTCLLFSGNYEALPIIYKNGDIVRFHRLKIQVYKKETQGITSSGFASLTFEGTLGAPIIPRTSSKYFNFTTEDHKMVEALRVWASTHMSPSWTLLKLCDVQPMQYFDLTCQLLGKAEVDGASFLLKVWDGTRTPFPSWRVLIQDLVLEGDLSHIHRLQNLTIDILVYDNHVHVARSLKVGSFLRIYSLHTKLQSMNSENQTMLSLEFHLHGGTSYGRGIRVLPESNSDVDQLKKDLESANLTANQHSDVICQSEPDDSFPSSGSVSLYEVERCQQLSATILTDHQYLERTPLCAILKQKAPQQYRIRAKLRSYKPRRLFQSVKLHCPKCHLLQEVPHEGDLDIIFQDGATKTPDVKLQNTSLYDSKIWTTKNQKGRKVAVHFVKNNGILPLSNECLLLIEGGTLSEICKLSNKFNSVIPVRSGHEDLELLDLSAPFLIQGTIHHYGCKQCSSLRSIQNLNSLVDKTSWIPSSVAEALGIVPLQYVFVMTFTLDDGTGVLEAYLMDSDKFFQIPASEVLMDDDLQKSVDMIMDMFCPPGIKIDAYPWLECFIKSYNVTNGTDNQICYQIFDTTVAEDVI

[4] = target: T2, flPOT1 C591W (Homo sapiens, UniProt Q9NUX5 1-634, C591W); experiment: as above; settings: protein: recombinant; tags: N-terminal His6-pMocr, TEV-cleaved; label: 5' 6-FAM; single strand
T2 sequence: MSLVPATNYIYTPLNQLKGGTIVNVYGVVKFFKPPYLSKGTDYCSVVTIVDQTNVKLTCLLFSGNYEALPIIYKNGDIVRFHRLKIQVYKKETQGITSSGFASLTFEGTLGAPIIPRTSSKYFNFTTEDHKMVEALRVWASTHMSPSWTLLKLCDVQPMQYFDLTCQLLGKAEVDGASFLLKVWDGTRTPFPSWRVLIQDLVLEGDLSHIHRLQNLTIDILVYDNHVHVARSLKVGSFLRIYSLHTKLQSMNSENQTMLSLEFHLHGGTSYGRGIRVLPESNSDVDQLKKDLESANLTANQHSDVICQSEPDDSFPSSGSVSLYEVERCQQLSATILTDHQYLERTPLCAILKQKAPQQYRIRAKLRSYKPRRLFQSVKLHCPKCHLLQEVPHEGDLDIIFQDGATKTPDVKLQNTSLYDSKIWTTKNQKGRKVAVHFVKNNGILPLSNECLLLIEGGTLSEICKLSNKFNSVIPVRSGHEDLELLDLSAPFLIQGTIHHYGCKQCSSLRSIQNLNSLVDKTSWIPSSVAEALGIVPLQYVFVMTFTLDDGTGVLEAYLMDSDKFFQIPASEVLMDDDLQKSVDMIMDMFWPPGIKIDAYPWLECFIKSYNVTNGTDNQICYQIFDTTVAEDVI

[5] = target: flPOT1 P446Q;TPP1(87) (Homo sapiens;Homo sapiens, UniProt Q9NUX5;Q96AP0 1-634;1-458, P446Q|); experiment: as above; settings: protein: recombinant;recombinant, tags: N-terminal His6-pMocr, TEV-cleaved;N-terminal His6-MBP, copies: 1;1, label: 5' 6-FAM, single strand
[6] = target: flPOT1 R477T;TPP1(87) (Homo sapiens;Homo sapiens, UniProt Q9NUX5;Q96AP0 1-634;1-458, R477T|); experiment: fluorescence polarization; wild-type affinity stated; FP: 20 mM Hepes pH 7.5, 100 mM KCl, 2 mM MgCl2, 1 mM EDTA, 2 mM DTT, 1 mg/ml BSA, 5% glycerol, 75 nM polyT50 competitor, 2.5 nM probe, room temperature 30 min; settings: protein: recombinant;recombinant, tags: N-terminal His6-pMocr, TEV-cleaved;N-terminal His6-MBP, copies: 1;1, label: 5' 6-FAM, single strand
[7] = target: flPOT1 A532P;TPP1(87) (Homo sapiens;Homo sapiens, UniProt Q9NUX5;Q96AP0 1-634;1-458, A532P|); experiment: as above; settings: protein: recombinant;recombinant, tags: N-terminal His6-pMocr, TEV-cleaved;N-terminal His6-MBP, copies: 1;1, label: 5' 6-FAM, single strand
[8] = target: flPOT1 L343F;TPP1(87) (Homo sapiens;Homo sapiens, UniProt Q9NUX5;Q96AP0 1-634;1-458, L343F|); experiment: as above; settings: protein: recombinant;recombinant, tags: N-terminal His6-pMocr, TEV-cleaved;N-terminal His6-MBP, copies: 1;1, label: 5' 6-FAM, single strand
Chain of flPOT1 L343F;TPP1(87) (Q96AP0 whole entry, stated change not applied, one chain of several): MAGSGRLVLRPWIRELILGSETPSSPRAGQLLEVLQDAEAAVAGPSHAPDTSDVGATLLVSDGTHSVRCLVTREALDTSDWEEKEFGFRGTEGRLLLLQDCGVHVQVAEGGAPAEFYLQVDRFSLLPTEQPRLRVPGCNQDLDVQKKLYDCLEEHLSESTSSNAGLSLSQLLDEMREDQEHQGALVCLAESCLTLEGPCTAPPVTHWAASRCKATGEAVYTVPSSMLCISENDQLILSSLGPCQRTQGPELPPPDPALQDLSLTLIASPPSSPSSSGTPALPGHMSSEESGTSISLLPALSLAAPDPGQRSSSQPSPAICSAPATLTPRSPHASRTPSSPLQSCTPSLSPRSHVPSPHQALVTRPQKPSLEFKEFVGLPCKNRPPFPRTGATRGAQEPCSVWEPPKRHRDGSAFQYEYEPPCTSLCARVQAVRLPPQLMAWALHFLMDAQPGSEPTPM

Chain of flPOT1 R477T;TPP1(87) (Q96AP0 whole entry, stated change not applied, one chain of several): as above
Chain of flPOT1 A532P;TPP1(87) (Q96AP0 whole entry, stated change not applied, one chain of several): as above
Chain of flPOT1 C591W;TPP1(87) (Q96AP0 whole entry, chain 2 of 2, one chain of several): as the sequence (Q96AP0 whole entry, stated change not applied, one chain of several) above
Chain of flPOT1 P446Q;TPP1(87) (Q9NUX5 whole entry P446Q, chain 1 of 2): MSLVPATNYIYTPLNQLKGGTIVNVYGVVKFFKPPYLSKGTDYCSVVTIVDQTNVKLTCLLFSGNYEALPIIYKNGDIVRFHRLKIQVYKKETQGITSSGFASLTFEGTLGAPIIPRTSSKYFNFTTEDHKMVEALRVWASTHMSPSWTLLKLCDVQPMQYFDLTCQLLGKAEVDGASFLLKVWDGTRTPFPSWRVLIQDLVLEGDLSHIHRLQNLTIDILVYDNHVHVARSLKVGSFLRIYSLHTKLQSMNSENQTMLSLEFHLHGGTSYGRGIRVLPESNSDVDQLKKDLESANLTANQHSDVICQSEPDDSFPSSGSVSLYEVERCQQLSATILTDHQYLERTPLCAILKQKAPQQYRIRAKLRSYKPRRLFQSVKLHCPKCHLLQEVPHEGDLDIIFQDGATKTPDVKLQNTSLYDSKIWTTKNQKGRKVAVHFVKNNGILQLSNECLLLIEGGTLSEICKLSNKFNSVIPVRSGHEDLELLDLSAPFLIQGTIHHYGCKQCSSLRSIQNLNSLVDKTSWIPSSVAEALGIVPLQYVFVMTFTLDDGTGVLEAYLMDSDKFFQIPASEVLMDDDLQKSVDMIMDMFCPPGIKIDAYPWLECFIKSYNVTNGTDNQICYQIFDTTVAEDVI
Chain of flPOT1 P446Q;TPP1(87) (Q96AP0 whole entry, chain 2 of 2): as the sequence (Q96AP0 whole entry, stated change not applied, one chain of several) above
Chain of POT1C;TPP1(PBD) (Q96AP0 169-251, one chain of several): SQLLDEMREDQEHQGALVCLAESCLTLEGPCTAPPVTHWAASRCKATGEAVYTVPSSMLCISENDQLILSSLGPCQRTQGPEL

Question: Which results are given for TTAGGGTTAGGGTTAGGG (ssDNA) [telomeric 18mer (TTAGGG)3]?
Answer: binding result [1]: no binding; Kd [2]: 15.6 ± 2.5 nM; Kd [3]: ~20 nM; Kd [4]: ~20 nM; Kd [5]: 10.3 ± 1 nM; binding result [6]: binds; binding result [7]: binds; binding result [8]: binds
